± gives the standard deviation of the averaged measurements.

From the supplement of paper PMC10126150 come the findings set out here.

For the data set, the system named is ATP. As to the kind of experiment: switch fluorescence ratio, 500 uM ATP over buffer (Cy3 cluster intensity, sum of 5 cycles each) (fold (ratio)); higher = stronger signal-on switching upon ATP binding; sequences stand for … in TCGTCGGCAGCGTCAGATGTGTATAAGAGACAGTTTTTTTTTTTTTTTTTTTTTTTTT…TC. The note with it: aptamer strand: ATP DNA aptamer (quencher-CACCTGGGGGAGTATTGCGGAGGAAGG + anchor), 100 nM annealed; ATP concentration: 500 uM. In a few lines:
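For every switch-domain sequence, the fluorescence ratio is the mean of per-cluster values, each being summed target-cycle Cy3 intensity over summed buffer-cycle Cy3 intensity. Clusters outside 100-1000 RFU were excluded. On a modified Illumina MiSeq flow-cell, the Cy3-labelled switching-strand clusters were annealed to 100 nM quencher-labelled ATP aptamer, imaged in selection buffer and then after 15 min with 500 uM ATP at 22 °C. Five such cycles were run, with NaOH stripping and re-annealing between them.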
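Further: ATP exposure 15 min at 22 °C before imaging.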

Take TAGCTCGGGG: the switch fluorescence ratio is 1.03 ± 0.035.

Regarding AATCCGCTCT, the switch fluorescence ratio amounted to 1.2 ± 0.11.

Turning to CAGGAGGGAG, the switch fluorescence ratio was 1.01 ± 0.011.

For GGCTAGGTGC, the switch fluorescence ratio was 1.24 ± 0.058.

Turning to GGGGTGAGCT, the switch fluorescence ratio turned out to be 0.981 ± 0.03.

Regarding GAGTCAGGGT, the switch fluorescence ratio amounted to 1.02 ± 0.011.

For TTTGAAGGGT, the switch fluorescence ratio was 1.0199 ± 0.00081.

GAGTGAGGTT: the switch fluorescence ratio is 0.955 ± 0.046.

With TTTTAGAGGT, the switch fluorescence ratio stood at 0.96 ± 0.033.

Take GGGAGGGGCC: the switch fluorescence ratio is 1.01 ± 0.026.

GATATTTTTT: the switch fluorescence ratio was 0.989 ± 0.012.

As for AAGAGCCATC, the switch fluorescence ratio came out at 0.9527 ± 0.009.

In the case of CCCCCCGGGG, the switch fluorescence ratio stood at 1.61 ± 0.32.

With GGGGCAGTTA, the switch fluorescence ratio was 1 ± 0.025.

Take GATACACATG: the switch fluorescence ratio came to 1.04 ± 0.021.

As for GGTCTTGTTG, the switch fluorescence ratio worked out at 1.02 ± 0.036.

As to GCTGTAATCT, the switch fluorescence ratio was 0.999 ± 0.027.

With CGAACTGCAG, the switch fluorescence ratio came to 1.034 ± 0.0016.

On to GGCTCAGGGC, for which the switch fluorescence ratio stood at 0.9793 ± 0.0024.

Consider GGGGTTCTTA, for which the switch fluorescence ratio is 1.02 ± 0.091.

In the case of CATCGCTGTG, the switch fluorescence ratio stood at 0.998 ± 0.039.

As for GGTGGACACT, the switch fluorescence ratio amounted to 1.03 ± 0.024.

ACCGAGGAGG: the switch fluorescence ratio was determined as 0.961 ± 0.026.

In the case of AGAGGCAAGA, the switch fluorescence ratio was found to be 1.16 ± 0.028.

On to GCAGGACATA, for which the switch fluorescence ratio stood at 1.06 ± 0.027.

In the case of TTGGAAGGGG, the switch fluorescence ratio was 1.13 ± 0.24.

Consider ATCAGAGCCG, for which the switch fluorescence ratio was found to be 0.98 ± 0.083.

Regarding ATATTAGGGC, the switch fluorescence ratio is 1.02 ± 0.015.

Regarding TCGGTGGTGG, the switch fluorescence ratio amounted to 0.997 ± 0.019.

In the case of AGGTGCCGTG, the switch fluorescence ratio came to 1.02 ± 0.083.

Regarding AGGTCGGGAG, the switch fluorescence ratio worked out at 0.9895 ± 0.0072.

GGTCGGACGT: the switch fluorescence ratio was 0.992 ± 0.086.

On to GTGAGCCAGT, for which the switch fluorescence ratio amounted to 1.01 ± 0.022.

As to AAATTCGGGC, the switch fluorescence ratio worked out at 0.973 ± 0.014.

As for ATTATGCTTT, the switch fluorescence ratio was determined as 1 ± 0.021.

In the case of ATCCGTGTCG, the switch fluorescence ratio turned out to be 1.02 ± 0.048.

On to TTTAATGCGC, for which the switch fluorescence ratio was found to be 1.23 ± 0.37.

As to GATAGGTTCG, the switch fluorescence ratio amounted to 0.983 ± 0.016.

Regarding TTGTTTTTTA, the switch fluorescence ratio stood at 1.01 ± 0.016.

Take GATCTGAACT: the switch fluorescence ratio is 1 ± 0.059.

With TATACATCTG, the switch fluorescence ratio came to 1.0055 ± 0.00054.

Take TGTTGACTGA: the switch fluorescence ratio stood at 1.02 ± 0.023.

For the sequence TTTGCACGTA, the switch fluorescence ratio was 0.991 ± 0.084.

Consider GTGGGGTGTG, for which the switch fluorescence ratio was 1.01 ± 0.021.

With CCTGGGGAAA, the switch fluorescence ratio came to 0.946 ± 0.021.

As to TGGGTGAGTT, the switch fluorescence ratio was 1.02 ± 0.019.

Consider CGGTGACTGA, for which the switch fluorescence ratio came out at 0.9569 ± 0.008.

ATATGGAATT: the switch fluorescence ratio stood at 0.977 ± 0.0046.

For the sequence CAGTAGTTGC, the switch fluorescence ratio amounted to 1.091 ± 0.0086.

For GGTCAAACCA, the switch fluorescence ratio was determined as 1.03 ± 0.0097.

On to AAAGTGATTG, for which the switch fluorescence ratio came out at 0.9723 ± 0.0028.

GCTGACTTGG: the switch fluorescence ratio worked out at 0.9714 ± 0.0081.

On to TGGTTCTGTG, for which the switch fluorescence ratio worked out at 1.0262 ± 0.00041.

Consider AAATGTTTTC, for which the switch fluorescence ratio was 0.979 ± 0.015.

With TCGGAAGTAT, the switch fluorescence ratio came to 0.9629 ± 0.0083.

As to TTTAAAGATT, the switch fluorescence ratio came to 1.01 ± 0.037.

As for TCCAGGGTAA, the switch fluorescence ratio was determined as 1.0425 ± 0.00073.

Consider TCGTTGATGC, for which the switch fluorescence ratio turned out to be 1.08 ± 0.08.

As for TAGTTGTGGT, the switch fluorescence ratio stood at 0.99 ± 0.034.

Regarding AAATTGGGAA, the switch fluorescence ratio is 1.01 ± 0.035.

Regarding AAAAAGGGCC, the switch fluorescence ratio stood at 1.009 ± 0.0089.

Take CTTACGTGTG: the switch fluorescence ratio is 1.03 ± 0.034.

Turning to TACAGCTGTG, the switch fluorescence ratio was 0.9865 ± 0.0083.

Regarding TGGACTGGGG, the switch fluorescence ratio stood at 0.9861 ± 0.0056.

Take TTTATGAAGC: the switch fluorescence ratio was 1.06 ± 0.076.

Regarding GGGGGTCATT, the switch fluorescence ratio turned out to be 0.9511 ± 0.0024.

Take CCCGGCATCT: the switch fluorescence ratio turned out to be 1.2197 ± 0.00016.

As to GTGAGATTGC, the switch fluorescence ratio amounted to 0.95675 ± 0.0008.

As to AATATGGGTT, the switch fluorescence ratio was found to be 0.9802 ± 0.0091.

As to TTGTTGAGAG, the switch fluorescence ratio came to 1.02 ± 0.022.

As for TATTCAGGGG, the switch fluorescence ratio amounted to 1.03 ± 0.058.

TTTTCGGCCC: the switch fluorescence ratio turned out to be 1.01 ± 0.026.

As to CGGGGAAAGT, the switch fluorescence ratio was found to be 0.996 ± 0.015.

For the sequence GAAATATTAG, the switch fluorescence ratio was 1.02 ± 0.032.

On to AAGTGTCCCG, for which the switch fluorescence ratio worked out at 0.994 ± 0.032.

For the sequence TGTGAGTTGC, the switch fluorescence ratio is 0.949 ± 0.0069.

With CCAGGCGCTA, the switch fluorescence ratio turned out to be 1.611 ± 0.014.

Consider ATTTAGGATG, for which the switch fluorescence ratio was 1.01 ± 0.021.

Turning to TCATAGAGTA, the switch fluorescence ratio was 1.02 ± 0.018.

Take ATCTTGAGAC: the switch fluorescence ratio turned out to be 1.02 ± 0.042.

In the case of GGGGGCGGTC, the switch fluorescence ratio came to 0.997 ± 0.023.

With ATAATATGAG, the switch fluorescence ratio was 0.993 ± 0.056.

As to TGGAAGCGTT, the switch fluorescence ratio came out at 0.98 ± 0.041.

Turning to TGACGAAGGG, the switch fluorescence ratio worked out at 0.987 ± 0.023.

Consider TGCCAATGGG, for which the switch fluorescence ratio stood at 1 ± 0.038.

With CGCTTAATCT, the switch fluorescence ratio was found to be 1.07 ± 0.018.

On to AAGCCGTAGG, for which the switch fluorescence ratio came to 0.991 ± 0.044.

For the sequence CCTGGCATTT, the switch fluorescence ratio came to 2.2 ± 1.4.

Regarding CTATGAATTT, the switch fluorescence ratio came out at 0.995 ± 0.011.

Turning to GTTTTTGGGG, the switch fluorescence ratio stood at 0.987 ± 0.055.

Regarding GATATATCAG, the switch fluorescence ratio was 0.9771 ± 0.0017.

Take GGGACTAGAG: the switch fluorescence ratio was found to be 0.9744 ± 0.0061.

With TTGATAGCCT, the switch fluorescence ratio was 1.06 ± 0.059.

Turning to TTTGAGGATA, the switch fluorescence ratio is 1.07 ± 0.021.

Take ACGGAGAAAC: the switch fluorescence ratio was found to be 1.35 ± 0.11.

Turning to TTGTGCGGGA, the switch fluorescence ratio was 0.999 ± 0.013.

On to CGGAAAGGGG, for which the switch fluorescence ratio is 0.978 ± 0.021.

With TAGAAAAAGC, the switch fluorescence ratio was found to be 0.9717 ± 0.0093.

Regarding GGCCTGGGAC, the switch fluorescence ratio came to 1.01 ± 0.027.

As to AAGGGCGGGC, the switch fluorescence ratio was found to be 1.07 ± 0.0085.

For GCGGGAATTG, the switch fluorescence ratio was 0.981 ± 0.023.

As to TAATGCTTAT, the switch fluorescence ratio is 1.06 ± 0.12.

As for AGGGGTAGGG, the switch fluorescence ratio is 1.01 ± 0.027.

In the case of AATAATAGCT, the switch fluorescence ratio is 1.01 ± 0.041.

For the sequence GAGTGGTTAG, the switch fluorescence ratio came out at 0.9884 ± 0.0017.

Consider ATAGTGAGTA, for which the switch fluorescence ratio was 0.996 ± 0.018.

For the sequence ATTATGCTGC, the switch fluorescence ratio stood at 0.977 ± 0.033.

Consider TATTTCCTGT, for which the switch fluorescence ratio is 0.993 ± 0.011.

Turning to AATTTTTAGG, the switch fluorescence ratio came to 0.98099 ± 2.5e-05.

For GGGGCTTTCG, the switch fluorescence ratio worked out at 1 ± 0.072.

As for CTGGTAGACT, the switch fluorescence ratio was 0.992 ± 0.023.

With GAGGGTTCGA, the switch fluorescence ratio stood at 0.987 ± 0.033.

For the sequence GGATTGTTTG, the switch fluorescence ratio worked out at 1.009 ± 0.01.

With CTCTTGGGAA, the switch fluorescence ratio is 0.992 ± 0.014.

As to GGGTACTGTA, the switch fluorescence ratio came out at 1.09 ± 0.041.

Take TCCGCTTGAG: the switch fluorescence ratio was determined as 1.36 ± 0.016.

Take TTTTTCAATG: the switch fluorescence ratio is 0.979 ± 0.042.

Turning to TAGTTAAATC, the switch fluorescence ratio stood at 1 ± 0.042.

In the case of TTTCTAGCGG, the switch fluorescence ratio worked out at 1.01 ± 0.054.

On to TTACTCGGGA, for which the switch fluorescence ratio came to 1.04 ± 0.012.
